# Measured values as given in patent US20090215081.
# T1: FLAG-TCF4, full length human TCF4 expressed from pFLAG-CMV-4, Q9NQB0
# T1 chain: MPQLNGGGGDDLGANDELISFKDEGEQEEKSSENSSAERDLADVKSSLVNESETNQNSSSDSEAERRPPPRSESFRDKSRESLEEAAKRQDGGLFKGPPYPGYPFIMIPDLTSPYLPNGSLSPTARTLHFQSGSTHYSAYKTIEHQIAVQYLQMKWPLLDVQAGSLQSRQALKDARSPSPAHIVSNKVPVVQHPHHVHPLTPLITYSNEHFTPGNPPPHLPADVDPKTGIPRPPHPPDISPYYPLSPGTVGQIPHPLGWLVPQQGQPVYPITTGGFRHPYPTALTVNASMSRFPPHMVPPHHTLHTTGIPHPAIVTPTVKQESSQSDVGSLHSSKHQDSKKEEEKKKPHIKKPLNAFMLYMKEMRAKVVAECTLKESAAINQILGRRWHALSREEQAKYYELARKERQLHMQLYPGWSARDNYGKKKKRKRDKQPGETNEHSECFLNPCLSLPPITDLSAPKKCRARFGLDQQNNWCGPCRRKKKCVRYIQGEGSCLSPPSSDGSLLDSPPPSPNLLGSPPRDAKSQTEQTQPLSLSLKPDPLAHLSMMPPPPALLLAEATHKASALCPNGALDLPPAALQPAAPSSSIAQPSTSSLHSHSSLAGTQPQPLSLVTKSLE
# Molecular target: T1, FLAG-TCF4, full length human TCF4 …
protein,measurement,value
"HA-TNIK K54R, ATP binding site mutant of human TNIK expressed from pCIneo-HA-TNIK K54R (protein) MASDSPARSLDEIDLSALRDPAGIFELVELVGNGTYGQVYKGRHVKTGQLAAIRVMDVTGDEEEEIKQEINMLKKYSHHRNIATYYGAFIKKNPPGMDDQLWLVMEFCGAGSVTDLIKNTKGNTLKEEWIAYICREILRGLSHLHQHKVIHRDIKGQNVLLTENAEVKLVDFGVSAQLDRTVGRRNTFIGTPYWMAPEVIACDENPDATYDFKSDLWSLGITAIEMAEGAPPLCDMHPMRALFLIPRNPAPRLKSKKWSKKFQSFIESCLVKNHSQRPATEQLMKHPFIRDQPNERQVRIQLKDHIDRTKKKRGEKDETEYEYSGSEEEEEENDSGEPSSILNLPGESTLRRDFLRLQLANKERSEALRRQQLEQQQRENEEHKRQLLAERQKRIEEQKEQRRRLEEQQRREKELRKQQEREQRRHYEEQMRREEERRRAEHEQEYIRRQLEEEQRQLEILQQQLLHEQALLLEYKRKQLEEQRQAERLQRQLKQERDYLVSLQHQRQEQRPVEKKPLYHYKEGMSPSEKPAWAKEVEERSRLNRQSSPAMPHKVANRISDPNLPPRSESFSISGVQPARTPPMLRPVDPQIPHLVAVKSQGPALTASQSVHEQPTKGLSGFQEALNVTSHRVEMPRQNSDPTSENPPLPTRIEKFDRSSWLRQEEDIPPKVPQRTTSISPALARKNSPGNGSALGPRLGSQPIRASNPDLRRTEPILESPLQRTSSGSSSSSSTPSSQPSSQGGSQPGSQAGSSERTRVRANSKSEGSPVLPHEPAKVKPEESRDITRPSRPASYKKAIDEDLTALAKELRELRIEETNRPMKKVTDYSSSSEESESSEEEEEDGESETHDGTVAVSDIPRLIPTGAPGSNEQYNVGMVGTHGLETSHADSFSGSISREGTLMIRETSGEKKRSGHSDSNGFAGHINLPDLVQQSHSPAGTPTEGLGRVSTHSQEMDSGTEYGMGSSTKASFTPFVDPRVYQTSPTDEDEEDEESSAAALFTSELLRQEQAKLNEARKISVVNVNPTNIRPHSDTPEIRKYKKRFNSEILCAALWGVNLLVGTENGLMLLDRSGQGKVYNLINRRRFQQMDVLEGLNVLVTISGKKNKLRVYYLSWLRNRILHNDPEVEKKQGWITVGDLEGCIHYKVVKYERIKFLVIALKNAVEIYAWAPKPYHKFMAFKSFADLQHKPLLVDLTVEEGQRLKVIFGSHTGFHVIDVDSGNSYDIYIPSHIQGNITPHAIVILPKTDGMEMLVCYEDEGVYVNTYGRITKDVVLQWGEMPTSVAYIHSNQIMGWGEKAIEIRSVETGHLDGVFMHKRAQRLKFLCERNDKVFFASVRSGGSSQVFFMTLNRNSMMNW","serine phosphorylation of TCF4 (immunoprecipitation with anti-TCF4, immunoblot with anti-phospho-serine antibody)",significant serine phosphorylation was not observed compared with control
